In the RNAGym collection of RNA variant scans (doi:10.1093/nar/gkz1192) one finds self-cleavage data, which are given here for 34 variants.

To fix the notation:
B1: CPEB3 Ribozyme (parent)
chain: UAACAGGGGGCCACAGCAGAAGCGUUCACGUCGCAGCCCCUGUCAGAUUCUGGUGAAUCUGCGAAUUCUGCUGUAUAUCUC

The variants in this data set derive from B1. The experiment in a line: self-cleavage, relative activity (ratio to wild type); higher = more cleavage; in vitro, sequencing. The method, boiled down: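 For each CPEB3 ribozyme variant, relative activity is its cleaved/total read fraction divided by the unmutated ribozyme's. Barcoded error-prone PCR libraries were transcribed by T7 RNA polymerase (5 hours, 37°C) and held in DNase I for 15 min before an EDTA stop, with cleavage occurring throughout. Template-switching reverse transcription and Illumina sequencing were used to read the RNAs. A 5-read minimum applied, and results are the mean of three batches.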
As for UAACAGGGGGGCACAGCAGAAGCGUUCACGUUGCAGCCCCUGUCAGAUUCUGGUGAAUCUGCGAAUUCUGCUGUAUAUCUC, the self-cleavage stood at 0.16.

Turning to UAACAGGGGGGCACAGCAGAAGCGUUCACGUAGCAGCCCCUGUCAGAUUCUGGUGAAUCUGCGAAUUCUGCUGUAUAUCUC, the self-cleavage is 0.31.

Turning to UAACAGGGGGGCACAGCAGAAGCGUUCACGUCGCAGCCCCUGUCAGAUUCUGGUGAAUCUGCGAAUUCUGCUGUAUGUCUC, the self-cleavage stood at 0.64.

As to UAACAGGGGGGCACAGCAGAAGCGUUCACGUCGCAGCCCCUGUCAGAUUCUGGUAAAUCUGCGAAUUCUGCUGUAUAUCUC, the self-cleavage was determined as 0.14.

With UAACAGGGGGGCACAGCAGAAGCGUUCACGUCGCAGCCCCUGUCAGAUUCUGGUUAAUCUGCGAAUUCUGCUGUAUAUCUC, the self-cleavage was determined as 0.55.

With UAACAGGGGGGCACAGCAGAAGCGUUCGCGUCGCAGCCCCUGUCAGAUUCUGGUGAAUCUGCGAAUUCUGCUGUAUAUCUC, the self-cleavage was determined as 0.24.

For the variant UAACAGGGGGACACAGCAGAAGCGUUCACGUCGCAGCCCCUGUCAGAUUCUGGUGAAUCCGCGAAUUCUGCUGUAUAUCUC, the self-cleavage came to 0.2.

Take UAACAGGGGGGCACAGCAGAAGCGUUCACGACGCAGCCCCUGUCAGAUUCUGGUGAAUCUGCGAAUUCUGCUGUAUAUCUC: the self-cleavage is 0.33.

For the variant UAACAGGGGGACACAGCAGAAGCGUUCACGUCGCAGCCCCUGUCAGAUUCUGGUGAAUCUGCGAACUCUGCUGUAUAUCUC, the self-cleavage was 0.12.

Take UAACAGGGGGGCACAGCAGAAGCGUUCACGUCGCAGCCCCUGUCAGAUUCUGGUGAAUCUGCGAAUUCUGUUGUAUAUCUC: the self-cleavage amounted to 0.16.

On to UAACAGGGGGGCACAGCAGAAGCGUUCACGUCGCAGCCCCUGUCAGAUUCUGGUGUAUCUGCGAAUUCUGCUGUAUAUCUC, for which the self-cleavage came to 0.28.

UAACAGGGGGGCACAGCAGAAGCGUUCACGUCGCAGCCCCUGUCAGAUUCUGGUGCAUCUGCGAAUUCUGCUGUAUAUCUC: the self-cleavage came to 0.38.

As for UAACAGGGGGGCACAGCAGAAGCGUUCACGUCGCAGCCCCUGUCAGAUUCUGGUGAAUCUGCUAAUUCUGCUGUAUAUCUC, the self-cleavage turned out to be 0.66.

Consider UAACAGGGGGGCGCAGCAGAAGCGUUCACGUCGCAGCCCCUGUCAGAUUCUGGUGAAUCUGCGAAUUCUGCUGUAUAUCUC, for which the self-cleavage stood at 0.32.

For UAACAGGGGGGCUCAGCAGAAGCGUUCACGUCGCAGCCCCUGUCAGAUUCUGGUGAAUCUGCGAAUUCUGCUGUAUAUCUC, the self-cleavage stood at 0.75.

UAACAGGGGGGCACAGCAGAAGCGUUCACGUCGCAGCCCCUGUGAGAUUCUGGUGAAUCUGCGAAUUCUGCUGUAUAUCUC: the self-cleavage was found to be 0.32.

UAACAGGGGGGCACAGCACAAGCGUUCACGUCGCAGCCCCUGUCAGAUUCUGGUGAAUCUGCGAAUUCUGCUGUAUAUCUC: the self-cleavage worked out at 0.48.

As to UAACAGGGGGGCACAGCAGAAGCGUACACGUCGCAGCCCCUGUCAGAUUCUGGUGAAUCUGCGAAUUCUGCUGUAUAUCUC, the self-cleavage came out at 0.34.

As to UAACAGGGGGGCACAGCAGAAGCGUCCACGUCGCAGCCCCUGUCAGAUUCUGGUGAAUCUGCGAAUUCUGCUGUAUAUCUC, the self-cleavage was 0.24.

For UAACAGGGGGACACAGCAGAAGCGUUCACGUCGCAGCCCCUGUCAGAUUCUGGUGAAUCUGCGAAUACUGCUGUAUAUCUC, the self-cleavage was 0.17.

In the case of UAACAGGGGGACACAGCAGAAGCGUUCACGUCGCAGCCCCUGUCAGAUUCUGGUGAAUCUGCGAAUCCUGCUGUAUAUCUC, the self-cleavage was found to be 0.09.

As to UAACAGGGGGGCACAGCAGAAGCGUUCACGUCGCAGCCCCUGUCAGAUUCUGGUGAAUCUGCGAAUUCUGCUGUAUAUCUU, the self-cleavage worked out at 0.86.

Regarding UAACAGGGGGGCAUAGCAGAAGCGUUCACGUCGCAGCCCCUGUCAGAUUCUGGUGAAUCUGCGAAUUCUGCUGUAUAUCUC, the self-cleavage came out at 0.93.

With UAACAGGGGGGCACCGCAGAAGCGUUCACGUCGCAGCCCCUGUCAGAUUCUGGUGAAUCUGCGAAUUCUGCUGUAUAUCUC, the self-cleavage was 0.62.

Regarding UAACAGGGGGGCACUGCAGAAGCGUUCACGUCGCAGCCCCUGUCAGAUUCUGGUGAAUCUGCGAAUUCUGCUGUAUAUCUC, the self-cleavage amounted to 0.39.

For the variant UAACAGGGGGGCACGGCAGAAGCGUUCACGUCGCAGCCCCUGUCAGAUUCUGGUGAAUCUGCGAAUUCUGCUGUAUAUCUC, the self-cleavage is 0.58.

Regarding UAACAGGGGGGCACAGCAGAAGCGUUCACGUCGCAGCCCCUGUCAGAUUCUGGUGAAUCUGCGAAUUCUGCUGUUUAUCUC, the self-cleavage came out at 0.78.

In the case of UAACAGGGGGGCACAGCAGAAGCGUUCACGUCGCAGCCCCUGUCAGAUUCUGGUGAAUCUGCGAAUUCUGCUGUGUAUCUC, the self-cleavage was 0.41.

In the case of UAACAGGGGGGCACAGCAGAAGCGUUCACGUCGCAGCCCCUGUCAGAUUCUGGUGAAUCUGCGAGUUCUGCUGUAUAUCUC, the self-cleavage worked out at 0.21.

Regarding UAACAGGGGGACACAGCAGAAGCGUUCACGUCGCAGCCCCUGUCAGAUUCUGGUGAAUCUGCGAAUUCUGCUGUAUAUCCC, the self-cleavage worked out at 0.5.

UAACAGGGGGGCACAGCAGAAGCGUUCACGUCGCAGCCCCUGUCAGAUUCUGGUGAGUCUGCGAAUUCUGCUGUAUAUCUC: the self-cleavage is 0.43.

UAACAGGGGGGCACAGCAGAAGCGUUCACGUCGCAGCCCCUGUCAGAUUCUGGUGAUUCUGCGAAUUCUGCUGUAUAUCUC: the self-cleavage came out at 0.39.

In the case of UAACAGGGGGGCACAGCAGAAGCGUUCACGUCGCAGCCCCUGUCAGAUUCUGGUGAAUCUGCGAAUUCUGCUGUAUAUCUC, the self-cleavage amounted to 0.52.

For UAACAGGGGGGCACAGCAGAAGCGUUCACGUCGCAGCCACUGUCAGAUUCUGGUGAAUCUGCGAAUUCUGCUGUAUAUCUC, the self-cleavage was 0.38.
